Here are results for 38 sequences from the supplement of paper PMC7877785.

The data set can be described thus: self-splicing fitness, log relative to wild type (ln ratio); higher = more splicing; Tetrahymena group I intron in knt gene, E. coli kanamycin selection, DiMSum; sequences stand for … in CUCUCU…GGAGGGAAAAGUUAUCAGGCAUGCACCUGGUAGCUAGUCUUUAAACCAAUAGAUUGCAUCGGUUUAAAAGGCAAGACCGUCAAAUUGCGGGAAAGGGGUCAACAGCCGUUCAGUACCAAGUCUCAGGGGAAACUUUGAGAUGGCCUUGCAAAGGGUAUGGUAAUAAGCUGACGGACAUGGUCCUAACCACGCAGCCAAGUCCUAAGUCAACAGAUCUUCUGUUGAUAUGGAUGCAGUUCACAGACUAAAUGUCGGUCGGGGAAGAUGUAUUCUUCUCAUAAGAUAUAGUCGGACCUCUCCUUAAUGGGAGCUAGCGGAUGAAGUGAUGCAACACUGGAGCCGCUGGGAACUAAUUUGUAUGCGAAAGUAUAUUGAUUAGUUUUGGAGUACUCGUGGUCG
In short, it runs like this: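 Six replicate transformations of E. coli BL21(DE3) with a pET-22b(+) library were grown overnight at 37°C or 30°C. The library randomised all eight P1ex-region intron nucleotides, the intron lying in the knt kanamycin-resistance gene, and plates were LB agar with or without 25 μg/mL kanamycin plus 100 μg/mL carbenicillin, 50 μM IPTG and 0.2% rhamnose. Pooled colonies were amplicon-sequenced on an Illumina HiSeq 2500, and fitness is the DiMSum error-weighted combination of wild-type-normalised replicate fold changes, kanamycin versus none.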

± gives the uncertainty stated by the source.

With GGCGAGCAAUAUUACGUUCA, the “self-splicing fitness (ln)” value is, setting by setting: (30 °C) -0.77 ± 0.1; (37 °C) 0.0965 ± 0.13.
With GGCUAGCAAUAUUACGAGAG, the “self-splicing fitness (ln)” value (30 °C) was -2.09 ± 0.16 and the “self-splicing fitness (ln)” value (37 °C) was -3.24 ± 0.32.
On the same counts, the results for GGCUAGCAAUAUUACGAGGG are -2.39 ± 0.21 and -2.27 ± 0.42.
On the same counts, the results for GGCUAGCAAUAUUACGAGUG are -0.589 ± 0.084 and 0.347 ± 0.12.
For GGCUAGCAAUAUUACGCAGG, the “self-splicing fitness (ln)” value reads like this: (30 °C) -3.5 ± 0.28; (37 °C) -1.81 ± 0.19.
As for GGCUAGCAAUAUUACGCGAG, the “self-splicing fitness (ln)” value was -4.46 ± 0.39 (30 °C) and -2.74 ± 0.28 (37 °C).
Consider GGCUAGCAAUAUUACGCGAU, for which the “self-splicing fitness (ln)” value (30 °C) was -1.74 ± 0.19 and the “self-splicing fitness (ln)” value (37 °C) is -0.776 ± 0.2.
For the sequence GGCUAGCAAUAUUACGCGUA, the “self-splicing fitness (ln)” value (30 °C) was -0.142 ± 0.14 and the “self-splicing fitness (ln)” value (37 °C) amounted to 0.00477 ± 0.15.
Consider GGCUAGCAAUAUUACGGAAA, for which the “self-splicing fitness (ln)” value reads like this: (30 °C) -2.79 ± 0.41; (37 °C) -1.92 ± 0.29.
Take GGCUAGCAAUAUUACGGCGA: the “self-splicing fitness (ln)” value was -0.177 ± 0.13 (30 °C) and 0.0471 ± 0.14 (37 °C).
For GGCUAGCAAUAUUACGGCGG, the “self-splicing fitness (ln)” value is -1.32 ± 0.13 (30 °C) and -0.684 ± 0.19 (37 °C).
As for GGCUAGCAAUAUUACGGGAA, the “self-splicing fitness (ln)” value is, setting by setting: (30 °C) -0.617 ± 0.14; (37 °C) -1.06 ± 0.2.
As for GGCUAGCAAUAUUACGGGGG, the “self-splicing fitness (ln)” value by setting is: (30 °C) -3.9 ± 0.37; (37 °C) -2.09 ± 0.21.
Consider GGCUAGCAAUAUUACGGUGU, for which the “self-splicing fitness (ln)” value (30 °C) was -0.416 ± 0.062 and the “self-splicing fitness (ln)” value (37 °C) turned out to be 0.178 ± 0.069.
With GGCUAGCAAUAUUACGUAAA, the “self-splicing fitness (ln)” value (30 °C) is -0.62 ± 0.084 and the “self-splicing fitness (ln)” value (37 °C) was -0.198 ± 0.1.
Take GGCUAGCAAUAUUACGUACC: the “self-splicing fitness (ln)” value was -0.292 ± 0.21 (30 °C) and 0.368 ± 0.23 (37 °C).
Taken in the same sequence, the figures for GGCUAGCAAUAUUACGUAGA were -0.208 ± 0.079 and -0.236 ± 0.1.
On the same counts, the results for GGCUAGCAAUAUUACGUAUU are -0.862 ± 0.1 and -0.777 ± 0.12.
On to GGCUAGCAAUAUUACGUUCA, for which the “self-splicing fitness (ln)” value is, setting by setting: (30 °C) -0.464 ± 0.094; (37 °C) 0.156 ± 0.11.
GGCUAGCAAUAUUACGUUGC: the “self-splicing fitness (ln)” value was -1.94 ± 0.17 (30 °C) and -1.38 ± 0.2 (37 °C).
With GGCUAGCAAUAUUACGUUGU, the “self-splicing fitness (ln)” value was -1.59 ± 0.083 (30 °C) and -0.434 ± 0.11 (37 °C).
GGGAAGCAAUAUUACGACAG: the “self-splicing fitness (ln)” value was -3.01 ± 0.31 (30 °C) and -3 ± 0.37 (37 °C).
With GGGAAGCAAUAUUACGACCU, the “self-splicing fitness (ln)” value (30 °C) is -2.31 ± 0.27.
For GGGAAGCAAUAUUACGAGGU, the “self-splicing fitness (ln)” value (30 °C) is -2.81 ± 0.31.
For GGGAAGCAAUAUUACGAUAC, the “self-splicing fitness (ln)” value by setting is: (30 °C) -0.528 ± 0.14; (37 °C) -0.986 ± 0.16.
In the case of GGGAAGCAAUAUUACGCAAG, the “self-splicing fitness (ln)” value is, setting by setting: (30 °C) -2.81 ± 0.16; (37 °C) -1.14 ± 0.14.
Take GGGAAGCAAUAUUACGCAGG: the “self-splicing fitness (ln)” value is -3.02 ± 0.22 (30 °C) and -2.32 ± 0.28 (37 °C).
As for GGGAAGCAAUAUUACGCAUC, the “self-splicing fitness (ln)” value reads like this: (30 °C) -2.36 ± 0.39; (37 °C) -1.77 ± 0.32.
Turning to GGGAAGCAAUAUUACGCCGU, the “self-splicing fitness (ln)” value is, setting by setting: (30 °C) -0.357 ± 0.36; (37 °C) -0.232 ± 0.31.
As for GGGAAGCAAUAUUACGCGAU, the “self-splicing fitness (ln)” value runs as follows: (30 °C) -3.63 ± 0.27; (37 °C) -0.798 ± 0.17.
Turning to GGGAAGCAAUAUUACGCGGU, the “self-splicing fitness (ln)” value runs as follows: (30 °C) -3.44 ± 0.31; (37 °C) -1.4 ± 0.21.
With GGGAAGCAAUAUUACGCGUC, the “self-splicing fitness (ln)” value runs as follows: (30 °C) -3.64 ± 0.3; (37 °C) -2.86 ± 0.47.
GGGAAGCAAUAUUACGCUGA: the “self-splicing fitness (ln)” value is -2.63 ± 0.33 (30 °C) and -1.54 ± 0.25 (37 °C).
With GGGAAGCAAUAUUACGGGAU, the “self-splicing fitness (ln)” value (37 °C) was -0.0224 ± 0.27.
In the case of GGGAAGCAAUAUUACGGGUG, the “self-splicing fitness (ln)” value runs as follows: (30 °C) -2.68 ± 0.13; (37 °C) -2.12 ± 0.18.
For GGGAAGCAAUAUUACGGUUC, the “self-splicing fitness (ln)” value runs as follows: (30 °C) -2.44 ± 0.18; (37 °C) -1.03 ± 0.22.
On to GGGAAGCAAUAUUACGGUUG, for which the “self-splicing fitness (ln)” value is -4.02 ± 0.33 (30 °C) and -2.74 ± 0.22 (37 °C).
Take GGGAAGCAAUAUUACGUCAG: the “self-splicing fitness (ln)” value is -2.92 ± 0.33 (30 °C) and -2.52 ± 0.33 (37 °C).
